Source: a protein production outcome set (Wang et al. 2014)

Assay: label from the status in PepcDB records
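Note: failed if final PepcDB status was selected cloned or expressed and not failed if soluble or beyond.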

| Sequence | protein production |
| --- | --- |
| MVTNKLITLLPDLATFIVVVNEGSFTAAAKKLGVTPSALSKLITRLENALSVKLFERTTRSLLITESGKKIYQQSVIMVEAAQQAVDISSSEHTVPSGSLTVAAPKAFLTIVLQPLITPFLTKYPKIQLKLRASDGDIDMIAQGIDVVFRLTDKPTEGLVMKEIGKVNLSLCASPTYLEERGIPHLPQELANHDCLFLGETTTDHIWEFVKGTESHVIAVSGRYAVNHSQMRLNGVKDGFGIGIFPDFVIKEALANNEVISVLSDWQIKGNYHGVIAMQYAQNKYIPSRLKVFTEFVKENLMKSKVNDERT | not failed |
| MGLLSDPVRRRALARLVLRLNAPLCVLSYVAGIAWFLALVFPPLTQRTYMSENAMGSTMVEEQFAGGDRARAFARDFAAHRKKSGALPVAWLERTMRSVGLEVYTQSFSRKLPFPDETHERYMVSGTNVYGILRAPRAASTESLVLTVPCGSDSTNSQAVGLLLALAAHFRGQIYWAKDIVFLVTEHDLLGTEAWLEAYHDVNVTGMQSSPLQGRAGAIQAAVALELSSDVVTSLDVAVEGLNGQLPNLDLLNLFQTFCQKGGLLCTLQGKLQPEDWTSLDGPLQGLQTLLLMVLRQASGRPHGSHGLFLRYRVEALTLRGINSFRQYKYDLVAVGKALEGMFRKLNHLLERLHQSFFLYLLPGLSRFVSIGLYMPAVGFLLLVLGLKALELWMQLHEAGMGLEEPGGAPGPSVPLPPSQGVGLASLVAPLLISQAMGLALYVLPVLGQHVATQHFPVAEAEAVVLTLLAIYAAGLALPHNTHRVVSTQAPDRGWMALKLVALIYLALQLGCIALTNFSLGFLLATTMVPTAALAKPHGPRTLYAALLVLTSPAATLLGSLFLWRELQEAPLSLAEGWQLFLAALAQGVLEHHTYGALLFPLLSLGLYPCWLLFWNVLFWK | failed |
| MPKIWTERIFDDPEIYVLRIDDDRIRYFEAVWEIPEGISYNAYLVKLNGANVLIDGWKGNYAKEFIDALSKIVDPKEITHIIVNHTEPDHSGSLPATLKTIGHDVEIIASNFGKRLLEGFYGIKDVTVVKDGEEREIGGKKFKFVMTPWLHWPDTMVTYLDGILFSCDVGGGYLLPEILDDSNESVVERYLPHVTKYIVTVIGHYKNYILEGAEKLSSLKIKALLPGHGLIWKKDPQRLLNHYVSVAKGDPKKGKVTVIYDSMYGFVENVMKKAIDSLKEKGFTPVVYKFSDEERPAISEILKDIPDSEALIFGVSTYEAEIHPLMRFTLLEIIDKANYEKPVLVFGVHGWAPSAERTAGELLKETKFRILSFTEIKGSNMDERKIEEAISLLKKELE | not failed |
| LDHITVVTADGKVALNQIGQISMKSPQVILVNMASFPECTAAAIKAIRESGMNLNPEVEGTLIRVPIPKVT | not failed |
| MGNDNVTIKLEHRVKTSADLSDYVYKYERAYTDALNNGDDIKEASESTKKELNQLIDRTDLTYSDGMYDKETGIAAIAVKDKNTGETYIAYAGTNKDADGATDFISDANIGANNSAYLKRLGDKATSFYDRVQSNGDNITVTTGHSYGDFLASRVAIELIPFFINFRKVNDSFHFCY | failed |
| MDPYFELRLSELKSIPVVTWLQFSIDNAREPGILVQSGQIWALLPPELTEKTRCFAIELGNECMRLKDYDNDDGKRVWLSDDELTRFIEQAETPHQRLAFLLAGRVGLRRSEIIEVCPQDLVDGPTGDHIRVWESYAKRDKYREPPVPQEVVTIAETLAYQQDDDEPLLDVAGSTVYRWVRRAADELEEETGDRGWQYLDVHDLRRTWGTYLLEQGVIPSVVMSFGGWEDWDTFRKHYLGEFSPEAIRRERGKVDFLEGGDESAEVVHPGTMPPASHHTAD | failed |
| MKALHFGAGNIGRGFIGKLLADAGIQLTFADVNQVVLDALNARHSYQVHVVGETEQVDTVSGVDAVSSIGDDVVDLIAQVDLVTTAVGPVVLERIAPAIAKGLVKRKEQGNESPLNIIACENMVRGTTQLKGHVMNALPEDAKAWVEEHVGFVDSAVDRIVPPSASATNDPLEVTVETFSEWIVDKTQFKGALPNIPGMELTDNLMAFVERKLFTLNTGHAITAYLGKLAGHQTIRDAILDEKIRAVVKGAMEESGAVLIKRYGFDADKHAAYIQKILGRFENPYLKDDVERVGRQPLRKLSAGDRLIKPLLGTLEYSLPHKNLIQGIAGAMHFRSEDDPQAQELAALIADKGPQAALAQISDLDANSEVVSEAVTAYKAMQ | failed |
| MLKSGRLNFLKLNINSRLLYSTNPQLTKKVIGIDLGTTNSAVAYIRDSNDKKSATIIENDEGQRTTPSIVAFDVKSSPQNKDQMKTLVGMAAKRQNAINSENTFFATKRLIGRAFNDKEVQRDMAVMPYKIVKCESNGQAYLSTSNGLIQSPSQIASILLKYLKQTSEEYLGEKVNLAVITVPAYFNDSQRQATKDAGKLAGLNVLRVINEPTAAALSFGIDDKRNNGLIAVYDLGGGTFDISILDIEDGVFEVRATNGDTHLGGEDFDNVIVNYIIDTFIHENPEITREEITKNRETMQRLKDVSERAKIDLSHVKKTFIELPFVYKSKHLRVPMTEEELDNMTLSLINRTIPPVKQALKDADIEPEDIDEVILVGGMTRMPKIRSVVKDLFGKSPNSSVNPDETVALGAAIQGGILSGEIKNVLLLDVTPLTLGIETFGGAFSPLIPRNTT | failed |
| MTAETSQTLDRGLRVLKLLADTDHGLTVTELSHKLGVNRTVVYRLLATLEQHALVRRDLGGRARVGLGVLGLGRQVHPLVREAAMPALRALAEDIGATAHLTLVDGAEALAVAVVEPTWTDYHVAYRAGFRHPLERGAAGKAILAARQPSQPTGGEAVDDPGYTLTHGELEAGACGAAAPLLGVTGVEGSVGVVMLADVVPERVGERVKHAAREVAEALR | failed |
| MSSMNANAENSESKPKSGNDPLDHEGGDSSAASEDPNKSKTVSSDDDLSETNKEKEEEDCEECWLSRYLKKGDCKDAFIEVDHCREVKDDGTNCRDARLKLITCMYTNVDYYGPFLAMQKEMRTQSLKELEQGEEAAAAAKKKEEEEETKGK | failed |
| MEVMVFTPKGEIKRLPQGATALDFAYSLHSDLGDHCIGAKVNHKLVPLSYVLNSGDQVEVLSSKSQQPTELEHHHHHH | not failed |
| MLFLVKEIYLQHLIQFFYVGFGIFLLYLGGNLLLKSSVGIATYLKVPTLLIGVTIVSFSTSAPELFTSLVAAFKGKNEIVVSNVIGSNIINMLLALPLAGFFLKIKADFKRLKLSFMFLFLLMFLLLLLSFDFRSYSFFVTPYNRFSSFSILILFLSYLLLFYKEEKEYASLENSFQEGASNLNQSFNFIFFNLLSFAISMYFLYLGSKLLVDGALYIANNVFNVSEKLIGIILVAFGTSVPELVVSLFAIIRKESDIAFGNIIGSNIFNIGFILASSSFFRPILLQDIYILDFSIMVFITLVLFLVVKFKGVFGRGISLIFLLLYFLYNLMLFNFY | failed |
| MSFDRPEIYSAPVLQGESPNDDDNTEIIKSFKNFILEFRLDSQFIYRDQLRNNILVKNYSLTVNMEHLIGYNEDIYKKLSDEPSDIIPLFETAITQVAKRISILSRAQSANNNDKDPENTSMDTDSLLLNSLPTFQLILNSNANQIPLRDLDSEHVSKIVRLSGIIISTSVLSSRATYLSIMCRNCRHTTSITINNFNSITGNTVSLPRSCLSTIESESSMANESNIGDESTKKNCGPDPYIIIHESSKFIDQQFLKLQEIPELVPVGEMPRNLTMTCDRYLTNKVIPGTRVTIVGIYSIYNSKNGAGSGRSGGGNGGSGVAIRTPYIKILGIQSDVETSSIWNSVTMFTEEEEEEFLQLSRNPKLYEILTNSIAPSIFGNEDIKKAIVCLLMGGSKKILPDGMRLRGDINVLLLGDPGTAKSQLLKFVEKVSPIAVYTSGKGSSAAGLTASVQRDPMTREFYLEGGAMVLADGGVVCIDEFDKMRDEDRVAIHEAMEQQTISIAKAGITTVLNSRTSVLAAANPIYGRYDDLKSPGDNIDFQTTILSRFDMIFIVKDDHNEERDISIANHVINIHTGNANAMQNQQEENGSEISIEKMKRYITYCRLKCAPRLSPQAAEKLSSNFVTIRKQLLINELESTERSSIPITIRQLEAIIRITESLAKLELSPIAQERHVDEAIRLFQASTMDAASQDPIGGLNQASGTSLSEIRRFEQELKRRLPIGWSTSYQTLRREFVDTHRFSQLALDKALYALEKHETIQLRHQGQNIYRSGV | failed |
| MIFMQTSSYHSVTSVIFDKNTQNHTSIAIWLLICCALVFAMVVVGGVTRLTGSGLSIVEWKPIVGTIPPISQGDWEILLEKYRQIPQYEQINKGMTLDEFKGIFWWEYFHRLLGRLIGLVYFVPFVYFMVRKRVDRVLGTKLLGIFVLGGLQGLMGWYMVMSGLADNVYVSQYRLTAHLGLAFIIYAAMFWVATGLLSPVNTHSADPASVRKLGRFARILTGLIFFMVLSGGLVAGIHAGKAYNTFPLMDGFFIPPALFVLEPWYRNFFDNITTVQFDHRMIAWLLMFTIPLFWFKARQLSLSWSGRLACHLLLIMLCTQVALGITTLLLSVPLTFAAAHQAGAVLLFTAALWVCRKLS | failed |
| MKKTVIKETERLLILLGATGLLSGIGIVMNGTPITAQATTTTTQTQGILHSGDFGTSHWYISDDLTLHIGAGTFANLSNSQSAPPWTAYGDQVAKIVIEGPVTLAPNSRELFGYLGATSIEGLDQIDASHVTNFEFAFFGIQVPNLDLTSWDVHNVTDAGFMFMRAQSDVINLSGWQMPKLKLAQWMFMLAPRVHELDLAGINFRNADATRALMNMNLTVIHLGPDSLLTGTNLQPFHNDAYQDMWQDIGDGTTEAPTGKNRYTYSQLMAEFKGAAPYTYVRAKNPGQPVTVQYLDQLNQALVKADTLTGYYGDTFTAQAKTFAGYHVTSVDGEPTGTFGSRPYTVTYHYAVDEKNQQSLLGEDATITVGDPAPTSETFKAKATDKDGQALPVVVDLSQATLNQPGRYPVTLTTRDGQSKAVTLTVKAADESSSSSSSSSIDRSHSSSTPTSSSNSDDSLSSGDLISGGDTDLAVFKGQAVYATKTVRLYQRPTFKASQVRARYAKQSRTKRPMFVVIGSAHSKHHALRFKVRDVNHHSKTAGKVGYITAKKAYVTNVYYQRTYTRVTVINPQGVNGYRTRKLTGKTRHYRRGQTLRVKRLVRYHLTTRYVLTNGRYVTTNKKLVKVQQNSVQQSTQHSAAVTTRTIK | failed |
| ALKQKIIGNGEKRVVTYAPTWREDDFISVGHYHFRWHFSLKKMMGLLPEDVMLLIRPHYLVTDRIDIKGFEDRVVIDSTTDMNEIYLITDLMVTDYSSVMFDFAILKRPMLFFAYDLEYYRDDLRGFYFDYYTELPGSIVTDETHLLAEIDQLLQNNFAELDPERFNKFAKRFVSWERGTAAQQVIEKINY | not failed |
| MRAFYSTTEEISALFAKQQEQLKTMQRTLEDEDNCDNTSLDIDLNPINRSPNRANTQGDKRATSHLNFAARASSSTSGQRSTRNEVVDTSCEDADATQKHDCEIMSQEGQNTQEAEYPSSDKVAKGGFGSDIEGIGTAPTSGTDPVGTEQVNETQSPGNDYERNDHLRKSIILAGDTMQIDCETQVHESVQIEGAVLLLRNPNDRRDTQDIEGVGTIGTSDLLASEVAGSWANSTNPSVHGENETERSREDEESQTQKIKEVTIVQDSAGQIGESQTKPTSPGVLVTNKDDAERGVINEPVGITDQGKIKHGTRSDSETESCSDSDDDHEKEKHNPVSDSDTEGSDMNDDKGSLSSDPDTERSHEVDGDQKKQVDTMDEDDKAT | failed |
| MRRLNLILLLSAVTAALAFVISCKETNAERLEKMCGEWVSTGGKPPFTLWEEDGRYRVTVMHRNHTGGSEAETYLVRETEGVLFIETGFAVMMDYDREKDRIRLSPGGEYRRKSDGTLKQ | failed |
| MTRAPSGGTEAPPGRTARRAGWDGRCQAAGHRSRRGGLSTGGDEVSTSDSDDAGLRSFLADPAHLTLDLRTATARCVKALGLRHAVVYLVDLQQRHLVPQTAVAPSVPVDGSPAGWAYRTQSLRVEESGTGGGITAWFPLLDGAERLGVLALCETALTASSLTRGRALASLLAMVITSKRLYEDSFVRRTRTERMTLPAEMLRALLPPRTIGNGNVVSTAVLEPAYEIGGDAFDHALTETTLHVAVLDAMGHDLASGLTTTVSLAACRNARRTGADLPELVRSVDEALSSWLPDKFCTSVIAQLDLVTGVLRWANCGHPAPILIRDQRLVIDAMERDADPPMGMPSLLSPHARRTHEISLEPGDRVLMYTDGVVEARTREAKLLGLERFADYVIRATAGGELAPESLRRLIHSILAMQEGRLRDDATLLMFEWRPPS | failed |
